Data on 2 molecules can be found in patent publication US20060159681A1 (FUNCTIONAL NEUROSCIENCE, published 2006).

In test [1] the target is Hsp70 (UniProt P0DMV8 1-641). The experiment in a line: co-immunoprecipitation from transfected HEK293T lysate. Here is the method:
(§1) Samples were harvested in lysis-buffer (50 mM Tris-HCl pH 7.4, 150 mM NaCl, 2 mM EDTA, 1% Triton X-100) supplemented with protease inhibitors (Roche). For complete solubilization of the pellet in synphilin ubiquitinylation experiments boiling lysis-buffer with 1% SDS was used. IPs were performed overnight followed by incubation with Protein G sepharose beads (Amersham). PDAs were performed with equimolar amounts of GST- and His-fusion proteins for 1 hr (4° C.). Beads were washed once with lysis-buffer and three times with PBS (pH 7.4).
Therefore, it was tested whether BAG5 may associate with itself by co-transfecting N-terminus GFP-tagged BAG5 (GFP-BAG5) with FLAG-BAG5 in HEK293T cells. […] Indeed, both GFP-BAG5 and GFP-BAG5(DARA) co-immunoprecipitated with FLAG-BAG5(DARA) (FIG. 3E, lane 4 and 6, respectively). It was also confirmed that Hsp70 co-immunoprecipitated with FLAG-BAG5 and not FLAG-BAG5(DARA) (FIG. 3E, lanes 1, 3 and 5 vs. 2, 4 and 6). […] Similar to results from FIG. 3E, GST-BAG5 and GST-BAG5(DARA) interacted with both GFP-BAG5 and GFP-BAG5(DARA), whereas only GST-BAG5 interacted with Hsp70 (FIG. 3F). […] Therefore complexes of BAG5 which contained BAG5(DARA) were unable to bind Hsp70 and inhibited BAG5 activity.

The target in test [2] is T1, His-Hsp70 (human, UniProt P0DMV8 1-641).
T1 construct: Purified from E. coli (pDEST17) for the pull-down assays; also called full-length Hsp70; not shown: N-terminal hexa-histidine tag from a pDEST vector
The experiment in a line: in vitro GST pull-down. As to the method: as §1
To further examine the nature of the association between parkin, Hsp70 and BAG5, in vitro pull-down experiments using GST-Hsp70, GST-BAG5, or GST-BAG5(DARA) with recombinant N-terminus His-tagged parkin were used. […] Thus, BAG5 interacted directly with parkin in the absence of Hsp70.

The target of test [3] is T2, endogenous Hsp70 in human brain lysate (human, UniProt P0DMV8 2-641).
T2 construct: Native protein in tissue lysate, detected with a monoclonal anti-Hsp70 antibody
The test can be described thus: GST pull-down from human brain SNpc lysate.

T2 sequence (P0DMV8 2-641): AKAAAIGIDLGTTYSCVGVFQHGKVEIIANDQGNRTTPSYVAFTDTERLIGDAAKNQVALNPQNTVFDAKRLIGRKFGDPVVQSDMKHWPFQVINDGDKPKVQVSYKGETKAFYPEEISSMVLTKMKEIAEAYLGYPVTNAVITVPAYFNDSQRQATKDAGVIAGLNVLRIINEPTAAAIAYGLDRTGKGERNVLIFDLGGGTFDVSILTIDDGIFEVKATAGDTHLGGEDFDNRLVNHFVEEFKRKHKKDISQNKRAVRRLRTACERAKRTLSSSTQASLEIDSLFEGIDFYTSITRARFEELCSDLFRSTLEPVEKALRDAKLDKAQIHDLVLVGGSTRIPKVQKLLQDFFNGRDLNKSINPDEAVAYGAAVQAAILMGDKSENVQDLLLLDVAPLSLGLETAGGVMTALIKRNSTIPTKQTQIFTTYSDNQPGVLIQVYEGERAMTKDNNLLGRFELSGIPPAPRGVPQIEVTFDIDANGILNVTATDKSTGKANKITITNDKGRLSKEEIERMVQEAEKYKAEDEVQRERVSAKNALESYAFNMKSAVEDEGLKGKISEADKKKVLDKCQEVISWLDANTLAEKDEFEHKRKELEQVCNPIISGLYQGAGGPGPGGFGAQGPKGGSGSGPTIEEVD
Hsp70, sequence (P0DMV8 whole entry, the tested form may be a part): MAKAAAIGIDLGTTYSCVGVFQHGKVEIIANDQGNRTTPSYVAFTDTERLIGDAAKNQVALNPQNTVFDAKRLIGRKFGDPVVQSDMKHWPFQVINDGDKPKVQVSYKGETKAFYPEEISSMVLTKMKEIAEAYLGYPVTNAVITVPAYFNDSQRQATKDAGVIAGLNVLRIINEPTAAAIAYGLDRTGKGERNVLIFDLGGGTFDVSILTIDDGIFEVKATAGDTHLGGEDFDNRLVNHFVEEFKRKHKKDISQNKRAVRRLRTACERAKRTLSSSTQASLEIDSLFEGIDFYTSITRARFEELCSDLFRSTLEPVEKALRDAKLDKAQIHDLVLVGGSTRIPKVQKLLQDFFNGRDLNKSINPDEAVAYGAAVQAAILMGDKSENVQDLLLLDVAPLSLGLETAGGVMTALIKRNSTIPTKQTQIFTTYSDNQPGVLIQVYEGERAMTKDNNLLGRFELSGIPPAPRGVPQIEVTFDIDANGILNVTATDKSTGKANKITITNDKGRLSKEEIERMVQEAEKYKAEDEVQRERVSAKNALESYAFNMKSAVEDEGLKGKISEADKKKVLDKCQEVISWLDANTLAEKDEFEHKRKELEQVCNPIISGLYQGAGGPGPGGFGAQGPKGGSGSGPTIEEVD
T1 sequence (P0DMV8 whole entry): as the sequence (P0DMV8 whole entry, the tested form may be a part) above

B1: FLAG-BAG5(DARA) (other, not shown: small tags and cut ends)
chain: MDMGNQHPSISRLQEIQKEVKSVEQQVIGFSGLSDDKNYKKLERILTKQLFEIASVDTEGKGDIQQAAKRAAQETERLLKELEQNANHPHRIEIQNIFEEAQSLVREKIVPFYNGGNCVTDEFEEGIQDIILRLTHVKTGGKISLRKARYHTLTKICAVQEIIEDCMKKQPSLPLSEDAHPSVAKINFVMCEVNKARGVLIALLMGVNNNETCRHLSCVLSGLIADLAALDVCGRTEIRNYAREVVEDINKLLKYLDLEEEADTTKAFDLRQNHSILKIEKVLKRMREIKNELLQAQNPSELYLSSKTELQGLIGQLAEVSLEKNPCIREAARRAVIEVQTLITYIDLKEALEKRKLFACEEHPSHKAVWNVLGNLSEIQGEVLSFDGNRTDKNYIRLEELLTKQLLALAAVDPQGEEKCKAAAKQAVRLAQNILSYLDLKSDEWEY
notes: Expressed by transfection in HEK293T cells
For B1, the binding result in test [1] is recorded as “no binding”.

B2: GST-BAG5(DARA) (other, not shown: a dimerising Fc or GST; large carriers; small tags and cut ends)
chain: B1 chain
notes: also called mutant BAG5(DARA)
For B2, the binding result in test [2] and in test [3] was “no binding” each time.
